Values joined by “and” are separate entries in the source; they are usually repeats but may differ in a detail not shown here. Identical values can stand only once.
Columns and labels:
[1] = Xylose isomerase activity assay (sorbitol dehydrogenase/NADH coupled, Kuyper et al.), soluble whole cell extract; type: biochemical, Saccharomyces cerevisiae
[2] = molecular target: xylose isomerase; experiment: Xylose isomerase assay in the presence of xylitol (inhibition constant); type: biochemical; conditions: chimeric variants table; inhibitor xylitol
Method: Approximately 20 μg of soluble whole cell extract from each transformed cell line, prepared using Y-PER plus reagent as described above, was incubated in a solution containing about 100 mM Tris, pH 7.5, 10 mM MgCl ? 2, 0.15 mM NADH (Sigma, St. Louis, Mo.), and 2 U Sorbitol Dehydrogenase (SDH) (Roche, Indianapolis, Ind.) at about 30° C. […] A Beckman DU-800 spectrophotometer was utilized with an Enzyme Mechanism software package (Beckman Coulter, Inc, Brea, Calif.), and the change in the A340 was monitored for 2-3 minutes.

[3] = Heterologous xylose isomerase expression in yeast (active yes/no); type: cell-based, Saccharomyces cerevisiae; conditions: xylose isomerase of donor organism expressed in engineered yeast (S. cerevisiae)
[4] = tested on: C5 strain; experiment: Xylose fermentation of C5 strain transformed with xylose isomerase constructs; type: cell-based, Saccharomyces cerevisiae
Source text: The engineered strain was designed to include the following genetic modifications: the native Pho13 gene (alkaline phosphatase specific for p-nitrophenyl phosphate) was disrupted by inserting a construct containing the native TLK1 gene (Transketolase-1); the native aldose reductase gene (Gre3) was disrupted by inserting a construct containing the native high-affinity glucose transporter-7 gene (HXT7); the native glucose-repressible alcohol dehydrogenase II gene (adh2) was disrupted by inserting a construct containing the native xylulokinase gene (XYLK); and the native orotidine-5′ phosphate decarboxylase gene (ura3) was disrupted by inserting a construct containing the native transaldolase 1 gene (TAL1). The resulting strain had the following genotype: pho13::TKL1, gre3::HXT7, adh-2::XYLK, ura3::TAL1.
The C5 strain was transformed using standard protocols with either p426GPD (as a control) or the chimeric variants XI-R, XI-Rp5, XI-Rp10, or XI-Rp15. The transformed cells were grown on SC-glucose minus uracil initially and then passaged onto SC-xylose minus uracil. Cultures of each of the above constructs were made in SC-xylose minus uracil—and grown for one week. The cultures were grown aerobically at 30° C. with 250 rpm agitation, 1 vvm sparge of process air, 21% O2. The pH was controlled at about 5.0 with 1N NaOH. […] At 24 hours elapsed fermentation time the fermentation was switched to anaerobic conditions. […] Oxygen was purged with 100% N2 sparge at 1 vvm until percent O2 was below 1%. Aeration was then set at 0.25 vvm 100% N2.
The final sample also measured biomass by dry cell weight.

[5] = tested on: Saccharomyces cerevisiae (strain BF903); experiment: Industrial yeast strain evaluation: aerobic growth and xylose consumption in YP-xylose; type: cell-based; conditions: 30° C., 7 days
Method: A commercially available industrial diploid strain of Saccharomyces cerevisiae (strain BF903; “Stillspirits” triple distilled yeast, Brewcraft, Albany, New Zealand; available at Hydrobrew, Oceanside, Calif.) was obtained and was made competent for transformation using known yeast cell transformation procedures. […] Transformed yeast containing each construct were grown overnight aerobically in a 15 ml culture tube on YPD media containing 2% glucose. After about 24 hours, about 25 ml of YP media containing 2% glucose and 100 μg/ml G418 was seeded with the cells at an initial OD600 of 0.5 in a 250 ml Erlenmeyer flask and grown aerobically at 30° C. The cultures were then passaged once every 7 days into fresh media, also at an initial OD600 of 0.5.
Measurements were taken of the cell optical density (OD600) to assess cell density and plated onto YPD with 100 μg/ml G418 to ensure that the plasmid was stable. […] The strains were then grown overnight in YPD (with 100 μg/ml G418) and used to inoculate about 50 ml YP-xylose (with 100 μg/ml G418) into disposable 250 ml Erlenmeyer flasks with vented caps at an initial OD600 of about 1. The cultures were allowed to grow aerobically at 30° C. at 200 rpm for 7 days.

[6] = tested on: Saccharomyces cerevisiae (strain BF903); experiment: Industrial yeast strain evaluation: ethanol production on xylose in sealed serum bottles; type: cell-based; conditions: strain BF903, YP plus xylose, sealed serum bottle
Method: The serum bottles were sealed with a butyl rubber stopper to prevent air exchange. As a result, the cultures became anaerobic once the available oxygen in the serum bottle was utilized. In general, anaerobiosis (e.g., the onset of anaerobic conditions) occurred a few hours after the culture was inoculated. Xylose utilization, ethanol production and cell growth were measured every twenty four hours.

Molecule	Specific Activity ([1]; chimeric variants table, xylose 40-500 mM, soluble whole cell extract) [µmol/min/mg]	Ki [2] [mM]	Active? (yes/no) [3]	Specific Activity ([1]; xylose isomerase expressed in S. cerevisiae, total soluble crude extract, xylose concentrations between 40 and 500 nM (so in the source), Michaelis-Menten plot) [µmol/min/mg]	Dry Cell Wt ([4]; final sample at 372 hours)	Ethanol ([4]; final sample at 372 hours)	Glucose ([4]; final sample at 372 hours) [g/L]	Xylose ([4]; final sample at 372 hours)	OD600 nm ([4]; final sample at 372 hours after commencing fermentation)	xylose consumption [5]	cell growth (cell density) [6]	ethanol production [6]
XI-P: xylose isomerase from Piromyces strain E2, SEQ ID NO: 35	2.02	4.79	Yes									
XI-R: native xylose isomerase of Ruminococcus flavefaciens strain 17, SEQ ID NO: 31 (protein, listed as Ruminococcus flavefaciens) MEFFSNIGKIQYQGPKSTDPLSFKYYNPEEVINGKTMREHLKFALSWWHTMGGDGTDMFGCGTTDKTWGQSDPAARAKAKVDAAFEIMDKLSIDYYCFHDRDLSPEYGSLKATNDQLDIVTDYIKEKQGDKFKCLWGTAKCFDHPRFMHGAGTSPSADVFAFSAAQIKKALESTVKLGGNGYVFWGGREGYETLLNTNMGLELDNMARLMKMAVEYGRSIGFKGDFYIEPKPKEPTKHQYDFDTATVLGFLRKYGLDKDFKMNIEANHATLAQHTFQHELRVARDNGVFGSIDANQGDVLLGWDTDQFPTNIYDTTMCMYEVIKAGGFTNGGLNFDAKARRGSFTPEDIFYSYIAGMDAFALGFRAALKLIEDGRIDKFVADRYASWNTGIGADIIAGKADFASLEKYALEKGEVTASLSSGRQEMLESIVNNVLFSL			Yes	0.9605	2.20 g/L and 2.03 g/L	15.65 g/L and 15.5 g/L	0	3.14 g/L and 3.85 g/L	7.72 and 7.32	more efficient at consuming xylose	grew to a higher cell density	produced more ethanol
